B1: 1008 (protein, listed as Pedobacter heparinus)
chain: MNLKTTGIVLVLSTIVCFPCIAQKNLEQSFKVTPDTIQTSVYWYWMSDNISKDGVVKDLYAMKSAGINRAFIGNIGYETTPYGKVKLFSAEWWDIMHTALKTATNLNIEIGVFNSPGWSQSGGPWVKPAQAMRYLASTKANFVGPKQLNVQLEKPKGYFQDVRVIAYKTPKAYGNSIAVHKPKLSSSISVQNINNLIDGSENTTVDIPATESITIDLETSSSFTARSLVVYPAHKGLNVNVELQVKKNKEYVSVKTFSVNRTNSNLHVGFKPYGPVAVSIPPTIGHSFRLVFGKSGGFGLAEVVLSQTPVVESYTEKTLAKMFQSPLPYWNEYQWPDQPLIDDLSLVIDPKTVIDITTFMNAEGQLKWDLPAGNWTIMRTGMLPTGVKNGPASPEGTGLEIDKMSKEHVANHFDAFMGELLRRIPAADRKTWKVVVQDSYETGGQNWTDDMIEKFKASFHYDPLPYLPVIQGEVVGDQNQSDRFLWDLRRFIADRVAYDYVGGLRDISHKHGLTTWLENYGHWGFPGEFLQYGGQSDEIGGEFWSEGELGNIENRAASSAAHIYGKTKVSAESFTAGDKPYQRYPYIMKQRGDRFFTEGINNTLLHLFIQQPSEDKVPGINANFGNEFNRHNTWFSYIDLFTGYLKRTNFMLQQGKYVADVAYFIGEDAPKMTGITDPALPAGYSFDYINAEVIQTRMKVKDGRMVLPDGMSYKLLVLPKLKTMRPELLAKIKELVAQGANILGPAPERSPSLANFPEADAKVKRMVTELWGNVNGTTIKTRKLGKGTIMSGMDMKLALNALNILPDFKTNTTDPVLFIHRSGPQAELYFISNQSEKQITFSPTFRSVDMQPELWDPVTGKTRVLSELSANGSSTTIPLTLEPLQSIFVVFRNPLVASPIRAINFPEAKTIEEINGPWKVTFNSQMRGPEKPVMFDTLIDWTKRPEESIKYYAGTAVYSNSFRATKPVKGERIYLYFSEVSVMAKVKVNGTDVGGMWTAPWRVDITDAIISGVNTLDISVVNNWVNRLVGDSKLPEAKRKTWTNNNPYTPDSKLVPSGLTGKVVVKTIKY
B2: 1016 (protein, listed as Olsenella profusa)
chain: MRATNLTVACLTNPLGIDVRCPELAWIDEDGLSQSAYQVECKDGAGATLWDTGKVASASMRIAWPGAALASRERVTWRVRLWDDGDACGPWSEFASIEEGLLSADDWCARWISGNYDVPTPRAGALGNFRQMVAAMRPASPDQVVTEPILEGRYPVDCFCRAFVVGKAPVRARLYITACGLYEARIDGEKVGDLCMAPGHTDYRKRVQYQTYDVTAALATGAHELTVQLADGWYRGSCGAWGLLNQYGTQTKLLAQLEVTYADGHVDCVATDTDWQWSGDGPILFADNKDGEMVDATRAPSYAGHARDARHDVAPTASNNVPITMHERFSPAPALAPNGRLLFDLGQNIAGWVELDFDAHESQHVLLRCGEMLDADGNLTLKNIQCSREGFATPLQQVEYVCREGHNHYRTTFCVFGFRYVEVETNVQLGEGSLTAIALYSDMRQTGSFECSNELLNRFFESTVWSTKGNSLDVPTDCPTRERHGWSGDAQIFFETLSYLFDCRSFERKWLHDLFDWQKRDGRLPQVAPAGGVDSYMRFLDGSVGWADAGILIPYRYWRHYGDASVLAELYDGMRRYAEFMIRRCGRRGPFSKRVGIHGEAKKYLVNMGQCYGEWAEPADVHKMDWKDTVAPHPEVATAYTDYVLGCMAQIARELGHEEDEARYRQYSEGCRLAYQELSRLPEFSLDTDRQARLVRPLAFGLLDPQQTAYARKRLVKACESYGWRLGTGFLSTPLILDVLAKYDLDAAYRLLENEEMPGWLFMPKMGATTVWESWEGTQAQGGIASLNHYSKGAVCAWLFRVMCGIAPDGERHVTVAPRPGGRFAYAKAGYESPCGFVGCGWQRVEDGWRFAVEVPANCAATVVLPDGSTREVGAGVHEFECVARAAREG
B3: 1042 (protein, listed as Streptomyces scabiei)
chain: MNPTAPAEQTPTDITVSVTGLRTADDSGLVATAHAMPRLSWSLTGTRPGILQHAYEIQVSGAPSFDDTTSSGQVESGTVTDHPWPAQPLSSRETRHWRVRVRTDRGWTRWSDPARVEGALLDAVDWAARPVHVPSDRGRPSPGPVPLLRREFHLPAEPVSARLYVTSLGVHRTTLNGRPVSADLLEPGWTSYPDRLLYATYDVTGLLRPGPNALAAAVGDGWFRGHLTWHKNRDVYGDTTGLLAQLEVDLTDGTRVTVITDGRWKGGYGDLLSADLYDGCERDLRAEPHGWQLPGFADDGWEPVAVLPLPEGLGQRAHPPVRVVRTVRPRLRTLADGTIAVDAGENVTGRLRIRADGRPGGTVTVRHAEVLDGDGRLLTSILRGARATDRYTLAEGPADLTPEFTFHGFRYAEIDASPDVSVEAVEVEVVAGDLRRIGEFHCSDERVNTLYANVVRSQRGNFLAVPTDCPQRDERLGWTGDIMAFAPTACATFDSASFLDSRLTDLRIQQRPDGAVPMVVPDVPLGELPPAELPFAGAAAGWGDAATVVPAALFEAYGQPHLLERHYTAMRAWVEFTVAHLDEDGTWSGNAQLGDWLDPAAPPENPAAATTDSGYVATAFVAHSARLLADAARELGFPEDADRYTALHRRTAEAAWRKWGDHARTTQTGCALALEFGIAPAGERAEVGKALASLVRANGGRIATGFLGTPFVLPALGDTGHVAEAYELLLNPECPGWLHQVSRGATTMWERWDAIGPDGTVDVENAGTMLSFNHYAYGAVASWLYRSVAGLRPASPGYRTLDIAPRPGATLTSAEAAVDTPYGTASVAWSIGDGSLTVRAVLPPGTTGRFSAPEGWTCTEPVDALASGSHVLSLRPLTRP
B4: 1023 (protein)
chain: MNLFLSIFLFCSPLFLLGQSELNYPELLYPPQAIKANWVSHPDIQGGEDRIVLFRNEWMVDDPSEAFIINISADNHYFLYVNGNLVTHGPQLSDIRHWKYETIDLKTYLKTGKNLIAIKVVNYGKRRFYGMQSIFTSLMVNGATENAKVLNTSGTDDGWKCSIDDSYRALEVNWRGGGPKSIVGGFYANNPTDFVDKNHYPTDWEQPDFDDSDWVDTQFFEGASSMGGSMAYLLEPRNLPLLTWEKEGIGHTVRTSDIDVSEFPVSGKTVVPEHKKIRFLIDQKYVTNGFPELIFSKGKNAHIKIKYAENLFGPKNTKGDRNIIKGKELLGYYDHVVSNGKERQKFTPNWMRTFRFVEFEIETKGQELVLDSFSNYRSRTHIPSIARFSSNNETYNAIFDICKRTVDICTQDYFLSDAYYETMQYVGDTKIHALLWQAMSGNLAHTKNAIEQFHRSRDADGNILGAYPLRSTFIYPTYSLVWVDMVYDYYQLTNDTDFINTYKDGIIHTLAGFEKNMNELNLVNETQYRYFVDWYTGPNNGGGTATKNNGKNSAVVSLHYVHALQNAARLFKAIGDKHTADTYLDRATAIKSSVYKLCFDPNKNIFAERPDKTVYDQHTNIMAVLTDAIAESEQKALLSNILNDPKLLQATYYYRYYLFEAIKKVGAPELFDLAQRPWQAMIDNHMTTTLERFESDKKPTRSEVHPWSASPAYFYFNYLAGIKSVKNDFQEIEIAPVFGILEDMEGLLPTSKGNILFHLKKIRSKLSAEIIVPKEMSGELVWNEKHIPLKHGQHTYILK
modifications: Zobellia galactanivorans

From US20240026407A1, “MODIFICATION OF SAPONINS” (GLAXOSMITHKLINE BIOLOGICALS SA, priority 2020, published 2024) come the findings set out here.

A short description of one test: Experiment 6-1: screening of rhamnosidases for derhamnosylation of saponins in treated bark extract (2%), QS-17 2310 to QS-18 2164 (PAR %). It counts as biochemical, Quillaja saponaria. The settings on record: TBE 2%, pH 7.5, 30 degC, 18 h; TIC peak area ratio percent, LCMS/MS; negative controls 3.061, 2.429.
For B1, the “Peak57 (PAR %)” value came to 2.658%.

Turning to B2, the “Peak57 (PAR %)” value is 3.326%.

For B3, the “Peak57 (PAR %)” value turned out to be 3.383%.

As for B4, the “Peak57 (PAR %)” value is recorded as 2.889%.

Another test is described as follows: Experiment 6-1: screening of rhamnosidases for derhamnosylation of saponins in treated bark extract (2%), QS-17 2296 to QS-18 2150 (PAR %). The test is classed as biochemical, Quillaja saponaria. The settings on record: TBE 2%, pH 7.5, 30 degC, 18 h; TIC peak area ratio percent of rhamnosylated starting saponin to derhamnosylated product, LCMS/MS; negative controls 4.876, 5.225.
In the case of B1, the “QS-17 (PAR %)” value amounted to 4.834%.

In the case of B2, the “QS-17 (PAR %)” value was determined as 4.872%.

Take B3: the “QS-17 (PAR %)” value is listed as 4.871%.

On to B4, for which the “QS-17 (PAR %)” value amounted to 4.916%.

The nature of the next test: Experiment 6-1: specificity of rhamnosidases towards other rhamnose residues (C3 saccharide rhamnose, C28 saccharide rhamnose). It counts as biochemical, Quillaja saponaria. The settings on record: TBE 2%, pH 7.5, 30 degC, 18 h; LCMS/MS; negative controls 0.18, 0.17.
As for B1, the “ratio PP/QS-21” value stood at 0.17.

Turning to B2, the “ratio PP/QS-21” value is reported as 0.18.

For the molecule B3, the “ratio PP/QS-21” value was 0.18.

B4: the “ratio PP/QS-21” value is recorded as 0.17.

The next test is described as follows: Experiment 6-1: screening of rhamnosidases for derhamnosylation of saponins in treated bark extract (2%), desglucosyl-QS-17 2134 to QS-21 1988 (PAR %). It counts as biochemical, Quillaja saponaria. Conditions: TBE 2%, pH 7.5, 30 degC, 18 h; TIC peak area ratio percent, LCMS/MS; negative controls 2.719, 2.158.
Consider B1, for which the “Peak75 (PAR %)” value worked out at 2.538%.

Consider B2, for which the “Peak75 (PAR %)” value was determined as 2.498%.

In the case of B3, the “Peak75 (PAR %)” value came out at 2.599%.

For B4, the “Peak75 (PAR %)” value came out at 2.120%.
